From patent EP4624492A1 (Shanghai Hongcheng Biopharmaceutical Co., Ltd., dated 2025)
Substitutions are numbered along the chain they refer to.

B1: 563E10E12_hzH3L0_hIgG1 (antibody)
heavy: not shown
light: DIVMTQSPLSLPVTPGEPASISCRSSKSLLHSNGITYLFWYLQKPGQSPQLLIYQMSNLASGVPDRFSGSGSGTDFTLKISRVEAEDVGVYYCAQSLELPLTFGGGTKVEIKRTVAAPSVFIFPPSDEQLKSGTASVVCLLNNFYPREAKVQWKVDNALQSGNSQESVTEQDSKDSTYSLSSTLTLSKADYEKHKVYACEVTHQGLSSPVTKSFNRGEC
notes: Humanized, hIgG1/K
B2: 563E10E12_hzH2L0_hIgG1 (antibody)
heavy: not shown
light: B1 light
notes: Humanized, hIgG1/K
B3: 563E10E12_hzH6L1_hIgG1 (antibody)
heavy: not shown
light: B1 light with I2V
notes: Humanized, hIgG1/K
B4: 563E10E12_hzH5L1_hIgG1 (antibody)
heavy: not shown
light: B1 light with I2V
notes: Humanized, hIgG1/K
B5: 563E10E12_hzH2L1_hIgG1 (antibody)
heavy: not shown
light: B1 light with I2V
notes: Humanized, hIgG1/K
B6: 563E10E12_hzH0L1_hIgG1 (antibody)
heavy: not shown
light: B1 light with I2V
B7: 563E10E12_hzH4L0_hIgG1 (antibody)
heavy: not shown
light: B1 light
notes: Humanized, hIgG1/K
B8: 563E10E12_hzH5L0_hIgG1 (antibody)
heavy: not shown
light: B1 light
notes: Humanized, hIgG1/K
B9: 563E10E12_hzH6L0_hIgG1 (antibody)
heavy: not shown
light: B1 light
notes: Humanized, hIgG1/K
B10: 563E10E12_hzH0L0_hIgG1 (antibody)
heavy: not shown
light: B1 light
notes: Humanized, hIgG1/K
B11: 563E10E12_hzH4L1_hIgG1 (antibody)
heavy: not shown
light: B1 light with I2V
notes: Humanized, hIgG1/K
B12: 563E10E12_hzH3L1_hIgG1 (antibody)
heavy: not shown
light: B1 light with I2V
notes: Humanized, hIgG1/K
B13: 27B9-1G3_hzH1L2_hIgG1 (antibody, V domains shown)
VH: QVQLVQSGAEVKKPGSSVKVSCKASGGTFSGYNMNWVRQAPGQGLEWMGNIDPYYGGTNYNQKFKGRVTITADKSTSTAYMELSSLRSEDTAVYYCARETWFITTGVIKKGFYFDYWGQGTTVTVSS
VL: EIVLTQSPATLSLSPGERATLACSASSIISSNYLHWYQQKPGQAPRLLIYRTSSLASGIPARFSGSGSGTDYTLTISSLEPEDFAVYYCQQGSSIPRTFGGGTKVEIKR
notes: Humanized, hIgG1/K; hzVH01 + hzVL02
B14: 27B9-1G3_hzH3L2_hIgG1 (antibody, V domains shown)
VH: B13 VH with R67K, V68A
VL: B13 VL
notes: Humanized, hIgG1/K; hzVH03 + hzVL02
B15: 27B9-1G3_hzH4L3_hIgG1 (antibody, V domains shown)
VH: B13 VH with G27Y, T28S, S30T, R67K, V68A
VL: B13 VL with A44S, I59V, D71S
notes: Humanized, hIgG1/K; hzVH04 + hzVL03
B16: 27B9-1G3_hzH3L3_hIgG1 (antibody, V domains shown)
VH: B13 VH with R67K, V68A
VL: B13 VL with A44S, I59V, D71S
notes: Humanized, hIgG1/K; hzVH03 + hzVL03
B17: 27B9-1G3_hzH2L2_hIgG1 (antibody, V domains shown)
VH: B13 VH with G27Y, T28S, S30T
VL: B13 VL
notes: Humanized, hIgG1/K; hzVH02 + hzVL02
B18: 27B9-1G3_hzH4L2_hIgG1 (antibody, V domains shown)
VH: B13 VH with G27Y, T28S, S30T, R67K, V68A
VL: B13 VL
notes: Humanized, hIgG1/K; hzVH04 + hzVL02
B19: 27B9-1G3_hzH2L1_hIgG1 (antibody, V domains shown)
VH: B13 VH with G27Y, T28S, S30T
VL: B13 VL with A22S, Y72F
notes: Humanized, hIgG1/K; hzVH02 + hzVL01
B20: 27B9-1G3_hzH1L1_hIgG1 (antibody, V domains shown)
VH: B13 VH
VL: B13 VL with A22S, Y72F
notes: Humanized, hIgG1/K; hzVH01 + hzVL01
B21: 27B9-1G3_hzH2L3_hIgG1 (antibody, V domains shown)
VH: B13 VH with G27Y, T28S, S30T
VL: B13 VL with A44S, I59V, D71S
notes: Humanized, hIgG1/K; hzVH02 + hzVL03
B22: 27B9-1G3_hzH4L1_hIgG1 (antibody, V domains shown)
VH: B13 VH with G27Y, T28S, S30T, R67K, V68A
VL: B13 VL with A22S, Y72F
notes: Humanized, hIgG1/K; hzVH04 + hzVL01
B23: 27B9-1G3_hzH1L3_hIgG1 (antibody, V domains shown)
VH: B13 VH
VL: B13 VL with A44S, I59V, D71S
notes: Humanized, hIgG1/K; hzVH01 + hzVL03
B24: 27B9-1G3_hzH3L1_hIgG1 (antibody, V domains shown)
VH: B13 VH with R67K, V68A
VL: B13 VL with A22S, Y72F
notes: Humanized, hIgG1/K; hzVH03 + hzVL01
B25: 563E10E12_hzH1L1_DE (antibody, human IgG1, kappa)
heavy: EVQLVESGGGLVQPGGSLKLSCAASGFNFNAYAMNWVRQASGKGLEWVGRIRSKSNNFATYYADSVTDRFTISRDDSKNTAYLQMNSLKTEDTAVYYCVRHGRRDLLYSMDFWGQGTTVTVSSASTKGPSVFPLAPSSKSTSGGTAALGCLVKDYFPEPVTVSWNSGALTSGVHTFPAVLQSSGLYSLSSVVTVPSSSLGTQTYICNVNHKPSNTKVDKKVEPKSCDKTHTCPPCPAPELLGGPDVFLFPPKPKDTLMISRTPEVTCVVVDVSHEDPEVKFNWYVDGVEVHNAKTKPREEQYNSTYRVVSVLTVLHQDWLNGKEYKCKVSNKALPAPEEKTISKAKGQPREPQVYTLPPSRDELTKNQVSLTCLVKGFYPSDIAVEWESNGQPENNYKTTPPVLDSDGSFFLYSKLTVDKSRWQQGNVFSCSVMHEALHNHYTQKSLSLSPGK
light: B1 light with I2V
B26: 563E10E12_hzH1L1_VLPLL (antibody, human IgG1, kappa)
heavy: EVQLVESGGGLVQPGGSLKLSCAASGFNFNAYAMNWVRQASGKGLEWVGRIRSKSNNFATYYADSVTDRFTISRDDSKNTAYLQMNSLKTEDTAVYYCVRHGRRDLLYSMDFWGQGTTVTVSSASTKGPSVFPLAPSSKSTSGGTAALGCLVKDYFPEPVTVSWNSGALTSGVHTFPAVLQSSGLYSLSSVVTVPSSSLGTQTYICNVNHKPSNTKVDKKVEPKSCDKTHTCPPCPAPELVGGPSVFLLPPKPKDTLMISRTPEVTCVVVDVSHEDPEVKFNWYVDGVEVHNAKTKPPEEQYNSTLRVVSVLTVLHQDWLNGKEYKCKVSNKALPAPIEKTISKAKGQPREPQVYTLPPSRDELTKNQVSLTCLVKGFYPSDIAVEWESNGQPENNYKTTPLVLDSDGSFFLYSKLTVDKSRWQQGNVFSCSVMHEALHNHYTQKSLSLSPGK
light: B1 light with I2V
B27: 559E1B10_hzH1L1_DE (antibody, human IgG1, kappa)
heavy: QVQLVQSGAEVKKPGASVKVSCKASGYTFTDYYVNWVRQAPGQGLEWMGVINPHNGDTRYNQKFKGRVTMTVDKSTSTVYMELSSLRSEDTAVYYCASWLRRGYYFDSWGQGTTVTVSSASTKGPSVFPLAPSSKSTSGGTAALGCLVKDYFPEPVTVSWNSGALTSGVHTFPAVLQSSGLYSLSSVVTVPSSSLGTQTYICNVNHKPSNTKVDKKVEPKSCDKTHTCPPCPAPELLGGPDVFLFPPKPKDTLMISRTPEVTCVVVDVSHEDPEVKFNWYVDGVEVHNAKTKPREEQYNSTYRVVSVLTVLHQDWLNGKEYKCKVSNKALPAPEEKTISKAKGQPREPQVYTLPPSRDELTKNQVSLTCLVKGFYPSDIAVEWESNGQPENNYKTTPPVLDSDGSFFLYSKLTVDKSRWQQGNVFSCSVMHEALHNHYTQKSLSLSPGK
light: EIVLTQSPATLSLSPGERATLSCRASQSISDYLHWYQQKPGQAPRLLLKYVSQSISGIPARFSGSGSGTDFTLTISSLEPEDFAVYYCQNGHSFPLTFGGGTKVEIKRTVAAPSVFIFPPSDEQLKSGTASVVCLLNNFYPREAKVQWKVDNALQSGNSQESVTEQDSKDSTYSLSSTLTLSKADYEKHKVYACEVTHQGLSSPVTKSFNRGEC
B28: 559E1B10_hzH1L1_VLPLL (antibody, human IgG1, kappa)
heavy: QVQLVQSGAEVKKPGASVKVSCKASGYTFTDYYVNWVRQAPGQGLEWMGVINPHNGDTRYNQKFKGRVTMTVDKSTSTVYMELSSLRSEDTAVYYCASWLRRGYYFDSWGQGTTVTVSSASTKGPSVFPLAPSSKSTSGGTAALGCLVKDYFPEPVTVSWNSGALTSGVHTFPAVLQSSGLYSLSSVVTVPSSSLGTQTYICNVNHKPSNTKVDKKVEPKSCDKTHTCPPCPAPELVGGPSVFLLPPKPKDTLMISRTPEVTCVVVDVSHEDPEVKFNWYVDGVEVHNAKTKPPEEQYNSTLRVVSVLTVLHQDWLNGKEYKCKVSNKALPAPIEKTISKAKGQPREPQVYTLPPSRDELTKNQVSLTCLVKGFYPSDIAVEWESNGQPENNYKTTPLVLDSDGSFFLYSKLTVDKSRWQQGNVFSCSVMHEALHNHYTQKSLSLSPGK
light: B27 light

Biological target: T1, human CCR8 (human, UniProt P51685 1-355)
T1 construct: whole, on cells; the cell line is named under assay; also called hCCR8
Assay: flow cytometry, competition with 10 nM AF647-human CCL1 on 293F-hCCR8 cells

T1 sequence (P51685 whole entry): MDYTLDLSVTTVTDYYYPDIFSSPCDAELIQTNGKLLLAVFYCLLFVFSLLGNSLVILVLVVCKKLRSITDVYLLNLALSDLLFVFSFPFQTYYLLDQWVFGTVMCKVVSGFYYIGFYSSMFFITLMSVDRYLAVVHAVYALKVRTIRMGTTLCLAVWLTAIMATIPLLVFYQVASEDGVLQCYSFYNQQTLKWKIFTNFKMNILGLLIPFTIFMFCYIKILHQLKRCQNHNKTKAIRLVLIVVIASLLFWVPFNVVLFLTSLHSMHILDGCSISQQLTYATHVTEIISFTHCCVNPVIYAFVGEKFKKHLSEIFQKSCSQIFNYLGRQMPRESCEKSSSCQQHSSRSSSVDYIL

Row | IC50 | Binder
1 | 0.0761 µg/mL | B1
2 | 0.0689 µg/mL | B2
3 | 0.0579 µg/mL | B3
4 | 0.0878 µg/mL | B4
5 | 0.064 µg/mL | B5
6 | 0.0862 µg/mL | B6
7 | 0.0544 µg/mL | B7
8 | 0.0851 µg/mL | B8
9 | 0.0543 µg/mL | B9
10 | 0.0958 µg/mL | B10
11 | 0.0458 µg/mL | B11
12 | 0.0732 µg/mL | B12
13 | 0.291 µg/mL | B13
14 | 0.15 µg/mL | B14
15 | 0.167 µg/mL | B15
16 | 0.189 µg/mL | B16
17 | 0.299 µg/mL | B17
18 | 0.162 µg/mL | B18
19 | 0.269 µg/mL | B19
20 | 0.31 µg/mL | B20
21 | 0.192 µg/mL | B21
22 | 0.163 µg/mL | B22
23 | 0.228 µg/mL | B23
24 | 0.121 µg/mL | B24

Biological target: T1, human CCR8
Assay: cell-based or functional assay

Row | EC50 of activation of Jurkat-human FcγRIIIa(158V)-NFAT with 293F-hCCR8 target cells | Binder
25 | 0.6 ng/mL | B25
26 | 1.3 ng/mL | B26
27 | 0.6 ng/mL | B27
28 | 1.4 ng/mL | B28

Biological target: T1, human CCR8
Assay: flow cytometry on 293F-hCCR8 cells

Row | EC50 | Binder
29 | 0.133 µg/mL | B1
30 | 0.103 µg/mL | B2
31 | 0.0593 µg/mL | B3
32 | 0.129 µg/mL | B4
33 | 0.136 µg/mL | B5
34 | 0.118 µg/mL | B6
35 | 0.102 µg/mL | B7
36 | 0.13 µg/mL | B8
37 | 0.0569 µg/mL | B9
38 | 0.107 µg/mL | B10
39 | 0.116 µg/mL | B11
40 | 0.114 µg/mL | B12
41 | 0.237 µg/mL | B13
42 | 0.2 µg/mL | B14
43 | 0.22 µg/mL | B15
44 | 0.198 µg/mL | B16
45 | 0.19 µg/mL | B17
46 | 0.196 µg/mL | B18
47 | 0.246 µg/mL | B19
48 | 0.188 µg/mL | B20
49 | 0.212 µg/mL | B21
50 | 0.178 µg/mL | B22
51 | 0.175 µg/mL | B23
52 | 0.175 µg/mL | B24

Biological target: T1, human CCR8
Assay: cell-based or functional assay
Remark: another data set of the same source

Row | EC50 of activation of Jurkat-human FcγRIIIa(158V)-NFAT with 293F-hCCR8 target cells | Binder
53 | 35.7 ng/mL | B1
54 | 28.1 ng/mL | B2
55 | 26.4 ng/mL | B4
56 | 30.5 ng/mL | B5
57 | 29.9 ng/mL | B6
58 | 38.8 ng/mL | B7
59 | 35.5 ng/mL | B8
60 | 28.6 ng/mL | B10
61 | 25.9 ng/mL | B11
62 | 26.1 ng/mL | B12

Biological target: T1, human CCR8
Assay: cell-based or functional assay
Remark: another data set of the same source

Row | IC50 of blockade of CCL1-induced β-arrestin recruitment | Binder
63 | 1160 ng/mL | B1
64 | 1460 ng/mL | B2
65 | 1650 ng/mL | B3
66 | 1380 ng/mL | B4
67 | 1520 ng/mL | B5
68 | 3650 ng/mL | B6
69 | 1490 ng/mL | B7
70 | 1700 ng/mL | B8
71 | 1840 ng/mL | B9
72 | 3510 ng/mL | B10
73 | 2100 ng/mL | B11
74 | 1530 ng/mL | B12
